The values below come from publication PMC8621594, “Physicochemical and Biological Characterization of rhC1INH Expressed in CHO Cells” (Pharmaceuticals, 2021).

The target of one assay is human C1s (human). Kind of assay: cell-based or functional assay.
Assay [1] deals with T1, blood coagulation factor XIIa (human, UniProt P00748 20-615).
T1 sequence (looked up): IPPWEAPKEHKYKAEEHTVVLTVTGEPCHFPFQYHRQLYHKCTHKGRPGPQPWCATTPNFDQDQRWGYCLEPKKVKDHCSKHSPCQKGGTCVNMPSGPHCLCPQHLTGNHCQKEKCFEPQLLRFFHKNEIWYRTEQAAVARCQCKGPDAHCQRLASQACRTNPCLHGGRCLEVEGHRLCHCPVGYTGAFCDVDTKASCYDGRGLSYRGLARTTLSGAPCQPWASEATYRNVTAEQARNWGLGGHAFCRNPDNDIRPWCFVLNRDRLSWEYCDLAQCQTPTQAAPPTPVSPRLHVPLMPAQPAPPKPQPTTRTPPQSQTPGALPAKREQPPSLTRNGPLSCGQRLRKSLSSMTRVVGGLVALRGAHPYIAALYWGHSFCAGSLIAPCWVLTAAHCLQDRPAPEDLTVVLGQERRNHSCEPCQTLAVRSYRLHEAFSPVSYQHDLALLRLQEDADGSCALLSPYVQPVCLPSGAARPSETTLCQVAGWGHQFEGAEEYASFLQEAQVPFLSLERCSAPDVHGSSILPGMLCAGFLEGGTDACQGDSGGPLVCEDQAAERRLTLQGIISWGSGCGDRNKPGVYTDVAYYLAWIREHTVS
Briefly: cell-based or functional assay.

For assay [2], the target named is T1, blood coagulation factor XIIa. Kind of assay: BLI; Octet QKe; each protease diluted to 10 ug/mL in 10 mM sodium acetate pH 6.0 and covalently immobilised on amino reactive sensors (AR2G); C1 inhibitor at 11, 5.5 and 2.8 uM in triplicates; 24 °C, 250 rpm; only the association rate constant calculated because complex formation is irreversible. The note with it: both partners purified.

B1: Ruconest^® (conestat alfa), human recombinant C1 inhibitor purified from the milk of transgenic rabbits (natural protein, UniProt P05155 23-500, looked up)
chain: NPNATSSSSQDPESLQDRGEGKVATTVISKMLFVEPILEVSSLPTTNSTTNSATKITANTTDEPTTQPTTEPTTQPTIQPTQPTTQLPTDSPTQPTTGSFCPGPVTLCSDLESHSTEAVLGDALVDFSLKLYHAFSAMKKVETNMAFSPFSIASLLTQVLLGAGENTKTNLESILSYPKDFTCVHQALKGFTTKGVTSVSQIFHSPDLAIRDTFVNASRTLYSSSPRVLSNNSDANLELINTWVAKNTNNKISRLLDSLPSDTRLVLLNAIYLSAKWKTTFDPKKTRMEPFHFKNSVIKVPMMNSKKYPVAHFIDQTLKAKVGQLQLSHNLSLVILVPQNLKHRLEDMEQALSPSVFKAIMEKLEMSKFQPTLLTLPRIKVTTSQDMLSIMEKLEFFDFSYDLNLCGLTEDPDLQVSAMQHQTVLELTETGVEAAAASAISVARTLLVFEVQQPFLFVLWDQQHKFPVFMGRVYDPRA
modifications: glycosylated; 8.0 ± 0.6 mol Neu5Ac/mol protein
Consider B1, for which the “IC50 of the inhibition of human serum complement (lysis of chicken erythrocytes), Ruconest® 0.0076 to 15.6 IU/mL; printed as activity against human C1-esterase in the blood serum” value with human C1s came out at 1.66 IU/mL.

B2: recombinant human C1 esterase inhibitor (rhC1INH) from Chinese hamster ovary (CHO) cells (natural protein, UniProt P05155 23-500, looked up)
chain: NPNATSSSSQDPESLQDRGEGKVATTVISKMLFVEPILEVSSLPTTNSTTNSATKITANTTDEPTTQPTTEPTTQPTIQPTQPTTQLPTDSPTQPTTGSFCPGPVTLCSDLESHSTEAVLGDALVDFSLKLYHAFSAMKKVETNMAFSPFSIASLLTQVLLGAGENTKTNLESILSYPKDFTCVHQALKGFTTKGVTSVSQIFHSPDLAIRDTFVNASRTLYSSSPRVLSNNSDANLELINTWVAKNTNNKISRLLDSLPSDTRLVLLNAIYLSAKWKTTFDPKKTRMEPFHFKNSVIKVPMMNSKKYPVAHFIDQTLKAKVGQLQLSHNLSLVILVPQNLKHRLEDMEQALSPSVFKAIMEKLEMSKFQPTLLTLPRIKVTTSQDMLSIMEKLEFFDFSYDLNLCGLTEDPDLQVSAMQHQTVLELTETGVEAAAASAISVARTLLVFEVQQPFLFVLWDQQHKFPVFMGRVYDPRA
modifications: heavily glycosylated: six occupied N- and more than 12 O- sites of glycosylation; about 20 mol Neu5Ac/mol protein
notes: mass of the totally deglycosylated protein 52,846 Da (theoretical 52,849 Da); By LC-MS 71% of the deglycosylated product is the full structure; source: genetically engineered CHO cells, purified
In general, kon refers to a measure of how fast the partners come together. For the molecule B2, the “inhibitory activity toward factor XIIa, chromogenic substrate S-2302, inhibitor 18 to 0.14 µM, relative to Berinert® (100%)” value in assay [1] stood at 115%. Moreover, in assay [2], the kon is 3260 M⁻¹ s⁻¹.
